Data on 1 substance can be found in patent US20160333063A1, “SOLUBLE HIGH MOLECULAR WEIGHT (HMW) TAU SPECIES AND APPLICATIONS THEREOF” (THE GENERAL HOSPITAL CORPORATION, priority 2013, published 2016).

The target of this experiment is amyloid beta (Aβ, measured as Aβ40) in conditioned medium from Tg2576 neuronal cultures (TgCM) (human and murine) (UniProt P05067). As to the kind of experiment: immunodepletion of TgCM with 9 µg 6E10 and Protein G-Sepharose beads; Aβ40 ELISA of the supernatant (TgCM about 12 nM Aβ40 before depletion). Background: An ELISA detects its analyte on a solid surface through an enzyme-linked reagent.
Sequence of amyloid beta (Aβ, measured as Aβ40) in conditioned medium from Tg2576 neuronal cultures (TgCM) (human and murine) (P05067 672-711 limits assumed): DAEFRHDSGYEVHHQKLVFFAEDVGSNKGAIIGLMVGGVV

For the substance “6E10 (Signet), a high-titer mouse monoclonal Aβ antibody reactive to amino acid residue 1-16 of beta amyloid”, the Aβ40 left in the medium after immunodepletion came out at 0.1 nM.
